Results on four molecules are retold here after patent US20220017630A1 (JIANGSU SIMCERE PHARMACEUTICAL, published 2022).

Numbering of substitutions follows the chain as printed.

The term IC50 denotes the concentration that inhibits the measured activity by half. A lower IC50 goes with greater potency. Usually Kd stands for the free concentration of one partner at which half of the binding sites on the other are occupied at equilibrium, for simple one-to-one binding. Low readings indicate higher affinity, high ones lower affinity. One may read the koff as the first-order rate constant of dissociation. A high value points to a short-lived complex. The kon is the rate constant with which the complex forms. Read a high kon as faster complex formation.

Experiment [1] deals with T1, human TNFR2 on the cell surface (CHO-TNFR2 cells; human Treg cells) (human, UniProt P20333 23-461).
T1 sequence (looked up): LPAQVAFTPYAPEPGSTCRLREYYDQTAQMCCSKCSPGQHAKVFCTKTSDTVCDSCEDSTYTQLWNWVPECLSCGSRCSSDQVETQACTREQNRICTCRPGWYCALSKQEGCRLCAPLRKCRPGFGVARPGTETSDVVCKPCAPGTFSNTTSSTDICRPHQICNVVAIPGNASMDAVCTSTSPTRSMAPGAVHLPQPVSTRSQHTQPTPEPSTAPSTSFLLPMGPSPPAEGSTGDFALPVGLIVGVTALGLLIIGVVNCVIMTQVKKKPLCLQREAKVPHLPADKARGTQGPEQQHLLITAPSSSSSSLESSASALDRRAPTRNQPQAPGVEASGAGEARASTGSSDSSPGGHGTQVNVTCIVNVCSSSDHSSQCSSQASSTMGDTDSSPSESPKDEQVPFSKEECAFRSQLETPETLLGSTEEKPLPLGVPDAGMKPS
Nature of the experiment: cell-based or functional assay.

For experiment [2], the target named is T1, human TNFR2 on the cell surface …. Nature of the experiment: cell-based or functional assay. The source holds these as a separate data set.
The target is the same in experiment [3]. Nature of the experiment: flow cytometry, blocking of TNFα-biotin on CHO-TNFR2 cells. As to the method: CHO cells that stably overexpressed human TNFR2 were used for experiments. The cells were resuscitated and passaged until in good state, and the expression level of human TNFR2 on the cells was assessed by FACS. Compared to the isotype control, the assay could be carried out when the fold change of mean fluorescence intensity (MFI) was more than 100 times.
CHO-TNFR2 cells were digested, washed twice with DPBS and stained with Live/Dead (L/D) at room temperature for 20 min, and then seeded at 1×10⁵ cells/50 μl/well. […] The diluted antibodies were added 50 μl/well into wells pre-seeded with cells, and gently blown and mixed to make the final concentrations of the antibodies to 20, 6.67, 2.22, 0.74, 0.247, 0.08, 0.027 and 0 nM, respectively followed by incubation at 4° C. for 30 min. […] After washing twice with the staining buffer, 100 μl/well of PE-streptavidin was added and incubated at 4° C. for 30 min. After additional washing with the staining buffer twice, 150 μl resuspended cells was analyzed using an flow cytometry. Taking the logarithmic value of the antibody concentrations as abscissa and the corresponding MFI value as ordinate, the inhibition curve of the antibody was drawn, and the IC50 value was calculated by four parameters fitting.
On the technique in general: A flow cytometer gives signals particle by particle.

In experiment [4] the target is T2, cynomolgus TNFR2 (Sino 90102-C08H) (cynomolgus, UniProt A0A2K5VET2 132-366).
T2 construct: also called CynoTNFR2 (His tag)
T2 sequence: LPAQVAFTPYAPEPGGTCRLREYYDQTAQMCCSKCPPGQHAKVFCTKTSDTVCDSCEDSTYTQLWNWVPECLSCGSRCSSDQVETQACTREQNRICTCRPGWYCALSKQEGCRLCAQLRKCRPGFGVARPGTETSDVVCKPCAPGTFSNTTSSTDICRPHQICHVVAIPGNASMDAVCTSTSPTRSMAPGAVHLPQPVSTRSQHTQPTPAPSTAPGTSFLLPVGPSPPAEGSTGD
Nature of the experiment: SPR Biacore, antibody on Protein A chip, TNFR2 analyte.

The target of experiment [5] is T3, Human TNFR2 recombinant protein (Sino 10417-H08H) (human, UniProt P20333 23-257).
T3 construct: also called hTNFR2 (His tag)
T3 sequence (looked up): T2 sequence with G16S, P36S, Q117P, H164N, A210E, G216S, V223M
Nature of the experiment: ELISA, coated antigen 0.5 ug/ml, antibody 28 ng/ml. As to the method:
(§1) An microplate was pre-coated with 100 μl/well of 0.5 μg/ml human TNFR2 or cynomolgus TNFR2 (the same antigen protein as in Example 4). […] A mouse anti-human IgG Fc-HRP working solution (1:10000 dilution) was added to the plate at 100 μl/well after plate washing, and incubated with shaking at room temperature for 1.0 h. The plate was washed again, a HRP substrate TMB was added for color development prior to the termination of the reaction by adding termination solution. An microplate reader was used to read the absorption value.

Experiment [6] concerns the target T2, cynomolgus TNFR2 (Sino 90102-C08H). Nature of the experiment: ELISA, coated antigen 0.5 ug/ml, antibody 28 ng/ml. As to the method:
as §1
(In general: An ELISA detects its analyte on a solid surface through an enzyme-linked reagent.)

Experiment [7] deals with T4, human TNFR2 (Novoprotein, Catalog No. C830) (human, UniProt P20333 23-257, limits assumed).
T4 construct: construct not described; also called TNFR2 protein
T4 sequence (looked up): T2 sequence with G16S, P36S, Q117P, H164N, A210E, G216S, V223M
Nature of the experiment: blocking ELISA, TNFα-biotin on coated human TNFR2, antibody 2 nM. As to the method: A microplate was pre-coated with 100 μl/well of 1 μg/ml human TNFR2 (Novoprotein, Catalog No. C830). […] After washing the plate, a Streptavidin-HRP working solution (1:10000 dilution) was added at 100 μl/well, and incubated with shaking at room temperature for 40 min. The plate was washed again, the HRP substrate TMB was added for color development, the termination solution was added to terminate the reaction, and the microplate reader was used to read the absorption value.

Experiment [8] has as its target T1, human TNFR2 on the cell surface …. Nature of the experiment: flow cytometry, blocking of TNFα-biotin on CHO-TNFR2 cells. The source holds these as a separate data set.

B1: TNFR2 antibody #133 (antibody, V domains shown)
VH: EVQLQESGAELVRSGASVKLSCTASGFNIKDYYIQWVKQRPEQGLEWIGWIDPESGNTKYAPKFQDKATMTADTSSNTAYLQLSGLTSEDSAVYYCNAYYDYDGSMDYWGQGTTVTVSS
VL: DIVMTQSPLSLPVSLGDQASISCRSSQSLVHSNGNTYLHWYLQKPGQSPKLLIYKVSNRFSGVPDRFSGSGSGTDFTLKISRVETDDLGVYFCSQSTHVPTWTFGGGTKLEIK
B1: the “proliferation inhibition (TNFα-induced Treg cell proliferation, against anti-Hel)” value (“proliferation inhibition” below) in experiment [1] was 9.7%. Moreover, the “% AUC versus positive control (#52), ADCC against Treg” value (“% AUC versus positive control” below) in experiment [2] turned out to be 46.6%. In experiment [3], this molecule returned an IC50 of 0.04 µg/mL. In experiment [4], this molecule registered a Kd of 3.61 nM, a koff of 0.0102 s⁻¹ and a kon of 2.82e+06 M⁻¹ s⁻¹. Further, the “ELISA OD” value in experiment [5] is 3.12 OD. Moreover, the “ELISA OD” value in experiment [6] is 3.18 OD. For the same molecule, the “ELISA OD of antibodies to be tested (2 nM)” value (“ELISA OD of antibodies” for short) in experiment [7] turned out to be 2.11 OD. In experiment [8], the “Antibody AUC” value came to 17300.

B2: TNFR2 antibody #365 (antibody, V domains shown)
VH: EVQLQESGPGLVQPSQSLSITCTVSGFSLTSYGVHWVRQSPGKGLEWLGLIWSDGSPDYSAAFISRLSINKDNSKSQVFFKMNSLQADDTAIYYCARNDDGGDYVMDYWGQGTTVTVSS
VL: EIVLTQSPALMSASPGEKVTMTCSASSSVSYMYWYQQKPRSSPKPWIYLTSNLASGVPARFSGSGSGTSYSLTISSMEAEDAATYYCQQWTSNPLTFGAGTKLEIK
For the molecule B2, the “proliferation inhibition” value in experiment [1] turned out to be 11%. In experiment [2], the “% AUC versus positive control” value is 70.7%. In experiment [3], this molecule displayed an IC50 of 0.041 µg/mL. In experiment [4], the affinity, expressed as Kd, was 0.752 nM; the koff worked out at 0.00308 s⁻¹; the kon turned out to be 4.1e+06 M⁻¹ s⁻¹. Also, in experiment [5], the “ELISA OD” value was 3.19 OD. For the same molecule, the “ELISA OD” value in experiment [6] worked out at 3.15 OD. In addition, in experiment [7], the “ELISA OD of antibodies” value is 1.26 OD. Besides, the “Antibody AUC” value in experiment [8] worked out at 10600.

B3: TNFR2 antibody #219 (antibody, V domains shown)
VH: EVQLQESGAELVRPGASVKLSCKASGYSFTNYWMNWVKQRPGQGLEWIGMIHPSDTETRLNQNFKDKATLTVDKSSSTSYMQLSSPTSEDSAVYYCARGEGLGAARSVSMDYWGQGTTVTVSS
VL: DILMTQSPSSLSASLGDRVTISCRASQDISNYLNWYQQKPDGTVKVLIYYTAILHSGVPSRFSGSGSGTDYSLTISNLEQEDIATYFCQQGNTLPWTFGGGTKLEIK
As to B3, the “proliferation inhibition” value in experiment [1] is 13.6%. The “% AUC versus positive control” value in experiment [2] stood at 52.7%. Besides, the IC50 in experiment [3] was 0.101 µg/mL. In experiment [4], the affinity, expressed as Kd, was 0.863 nM; the koff worked out at 0.000481 s⁻¹; the kon amounted to 558000 M⁻¹ s⁻¹. Moreover, the “ELISA OD” value in experiment [5] turned out to be 3.37 OD. Besides, the “ELISA OD” value in experiment [6] turned out to be 3.41 OD. Further, the “ELISA OD of antibodies” value in experiment [7] was found to be 0.756 OD. The “Antibody AUC” value in experiment [8] turned out to be 14900.

B4: TNFR2 antibody #226 (antibody, V domains shown)
VH: B3 VH with T56S, N63K, S79A
VL: B3 VL with L3Q, I53L
In the case of B4, the “proliferation inhibition” value in experiment [1] was found to be 10.3%. The “% AUC versus positive control” value in experiment [2] is 69%. For the same molecule, in experiment [3], half-maximal inhibition (IC50) was put at 0.06 µg/mL. Besides, in experiment [4], the affinity, expressed as Kd, was 0.577 nM; the koff was found to be 0.000318 s⁻¹; the kon worked out at 551000 M⁻¹ s⁻¹. Besides, the “ELISA OD” value in experiment [5] was determined as 3.34 OD. Moreover, the “ELISA OD” value in experiment [6] was found to be 3.28 OD. For the same molecule, the “ELISA OD of antibodies” value in experiment [7] was 0.709 OD. Moreover, the “Antibody AUC” value in experiment [8] worked out at 18600.
